The source of these data is patent publication US7846710B2, “Cell comprising an intein for the production of a cyclic peptide” (The Penn State Research Foundation, priority 1998, dated 2010).

For the test, the target named is T1, recombinant Streptomyces antibioticus tyrosinase (Streptomyces antibioticus, UniProt P07524).
T1 construct: expressed in transfected cells; host or cells: E. coli XL1-Blue co-transformed with pDIM-NY (pDIMN-Y) and pARCP-p or pARCP2-6H
T1 sequence (P07524 whole entry, looked up): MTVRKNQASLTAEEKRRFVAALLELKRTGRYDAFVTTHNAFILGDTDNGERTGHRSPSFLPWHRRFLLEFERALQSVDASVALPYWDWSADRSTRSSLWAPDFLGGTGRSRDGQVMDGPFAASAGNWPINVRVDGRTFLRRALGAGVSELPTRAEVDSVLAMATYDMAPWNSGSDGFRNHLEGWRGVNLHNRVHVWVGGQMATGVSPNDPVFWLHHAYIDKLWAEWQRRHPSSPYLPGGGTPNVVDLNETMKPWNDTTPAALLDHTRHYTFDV
Kind of test: In vivo assay on FeCuY plates to detect tyrosinase inhibition (pigment formation) by co-expressed cyclic peptide. The settings on record: co-expression in tyrosinase expressing XL1-Blue cells on FeCuY plates, L-(+)arabinose (0.5%) induction. The test is classed as cell-based, Escherichia coli XL1-Blue. The text has this: FIG. 7 is a photograph of FeCuY plates used in an in vivo assay to detect tyrosinase inhibition by pseudostellarin F.
The tyrosinase gene (including ORF 438) from Streptomyces antibioticus (Berman et al, Gene 37:101, 1985) was amplified with Vent-polymerase from pIJ702 (ATCC no. 35287) with primers introducing 5′
Ndel and 3′ EcoRI restriction sites. The PCR product was digested with Ndel and EcoRI and ligated into similarly digested pDIMN2 (Ostermeier et al, supra) to generate pDIMN-Y. Transformed ligation mixtures were grown at ambient temperature for 5 days, and colonies that expressed tyrosinase were identified by pigment formation on FeCuY plates [LB agar plates containing ampicillin (200 ug/ml), FeCI3.6H2O (0.2 mM), CuS04.5H2O (0.2 mM), L-tyrosine (0.3 mg/ml, Y) and isopropyl-B-D-galactoside (1 mM)] (Della-Cioppa, G. et al., Biotechnology 8:634, 1990).
Pseudostellarin F production was readily detected in vivo through inhibition of recombinant Streptomyces antibioticus tyrosinase (FIG. 7). In the experiment shown in FIG. 7, XLI-Blue cells were co-transformed with pDIM-NY and either pARCP2-6H (a & b) or pARCP-p (c & d). The cells were plated on FeCuY plates with chloramphenicol (50 ug/ml), either without (a & c) or with (b & d) L-(+)arabinose (0.5%).

In the case of “cyclo-[Ser-Gly-Gly-Tyr-Leu-Pro-Pro-Leu] (SGGYLPPL; backbone cyclized; printed: Ser-Gly-Gly-Tyr-Leu-Pro-Pro-Leu) [pseudostellarin F, backbone cyclic peptide produced in E. coli from pARCP-p by intein-mediated cyclization]”, the “tyrosinase inhibition (pigment formation)” value is “dramatically reduced pigment formation”.

Take “cyclo-[CHMHHHHHHGAGAA] (backbone cyclized) [cyclic peptide from pARCP2-6H, unrelated cyclic peptide encoded by plasmid pARCP2-6H, used as negative control]”: the “tyrosinase inhibition (pigment formation)” value is recorded as “failed to inhibit tyrosinase”.
